The chains are these.
B1: CCM3 (purified, polyhistidine tag removed by TEV protease) (natural protein)
chain: not shown
B2: N-terminally 6×His-tagged full-length CCM3 (natural protein)
chain: not shown

Data set [1] deals with the molecule itself. The experiment in a line: crystal structure.
Data set [2] has as its target B1. The experiment in a line: crystal structure.
The target of data set [3] is GST-CCM2^FL (residues 1–438) (human, UniProt Q9BSQ5 1-438). The experiment in a line: pull-down.
The target of data set [4] is B2. Kind of data set: pull-down.
For data set [5], the target named is B2. The experiment in a line: pull-down. The source holds these as a separate data set.
Data set [6] deals with B1. The experiment in a line: BLI.

Binding result and Kd data for six molecules are collected here from paper PMC4384732 (The Journal of Cell Biology, 2015).

Chain of GST-CCM2^FL (residues 1–438) (Q9BSQ5 1-438): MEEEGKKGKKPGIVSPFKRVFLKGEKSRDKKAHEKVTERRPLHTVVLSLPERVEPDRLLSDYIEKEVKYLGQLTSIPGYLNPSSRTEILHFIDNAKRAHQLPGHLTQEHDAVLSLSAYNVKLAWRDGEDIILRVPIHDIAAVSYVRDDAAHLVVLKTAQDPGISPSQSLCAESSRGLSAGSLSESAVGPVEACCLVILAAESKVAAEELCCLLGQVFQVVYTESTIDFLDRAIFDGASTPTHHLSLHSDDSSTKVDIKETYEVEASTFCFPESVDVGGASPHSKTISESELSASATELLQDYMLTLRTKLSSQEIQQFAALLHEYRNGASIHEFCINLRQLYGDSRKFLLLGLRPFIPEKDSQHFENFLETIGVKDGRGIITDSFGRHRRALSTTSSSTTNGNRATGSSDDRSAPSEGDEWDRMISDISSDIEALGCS

For the molecule B1, in data set [1], the binding result was “binds”.
As to Ac-STIDFLDRAIFDGAST-NH2 [CCM2 LD–like motif peptide (224–239)], the binding result in data set [2] is recorded as “binds”.
In data set [3], B2 registered a dissociation constant Kd of 8.8 ± 1.6 µM.

B3: GST-CCM2^PTB-ShortLinker (residues 51–238) (domain or fragment, human, UniProt Q9BSQ5 51-238, looked up)
chain: ERVEPDRLLSDYIEKEVKYLGQLTSIPGYLNPSSRTEILHFIDNAKRAHQLPGHLTQEHDAVLSLSAYNVKLAWRDGEDIILRVPIHDIAAVSYVRDDAAHLVVLKTAQDPGISPSQSLCAESSRGLSAGSLSESAVGPVEACCLVILAAESKVAAEELCCLLGQVFQVVYTESTIDFLDRAIFDGAS
Regarding B3, the binding result in data set [4] was “binds”.
On to STIDFLDRAIFDGAST [GST-CCM2-LD–like motif (residues 224–239)], for which the Kd in data set [5] amounted to 8.6 ± 2.2 µM; in data set [6], 9.5 ± 2.5 µM.

B4: GST-CCM2^PTB-LongLinker (residues 51–251) (domain or fragment, human, UniProt Q9BSQ5 51-251, looked up)
chain: ERVEPDRLLSDYIEKEVKYLGQLTSIPGYLNPSSRTEILHFIDNAKRAHQLPGHLTQEHDAVLSLSAYNVKLAWRDGEDIILRVPIHDIAAVSYVRDDAAHLVVLKTAQDPGISPSQSLCAESSRGLSAGSLSESAVGPVEACCLVILAAESKVAAEELCCLLGQVFQVVYTESTIDFLDRAIFDGASTPTHHLSLHSDDS
For the molecule B4, in data set [4], the binding result is reported as “binds”.
